Data: patent US20170253645A1 (published 2017)
Where “and” joins values, the source holds several entries; their conditions need not be identical. Equal entries are not always repeated.

Legend:
[1] = molecular target: T1, TNF-α (UniProt P01375 77-233, biotinylated (sites not given)); assay: Octet BLI, biotinylated TNF-α on streptavidin tips, A6+Fc at 370 nM
T1 construct: Bought protein; also called biotintylated TNF-α soluble protein
Method: (§1) The target protein was biotintylated TNF-α soluble protein (R&D Systems) and is at a concentration of 0.25 ug/ml for loading onto the streptavidin sensor tips. […] The Octet was run using the manufacturers protocol for Basic Kinetic Assay.

[2] = molecular target: T1, TNF-α; assay: Octet BLI, biotinylated TNF-α on streptavidin tips, A6 at 290 nM
Method: as §1

[3] = molecular target: T2, HMGB1 (UniProt P09429 1-215, limits assumed, biotinylated in the RAGE assay (sites not given)); assay: Octet BLI
T2 construct: also called biotinylated HMGB1
T2 sequence (looked up): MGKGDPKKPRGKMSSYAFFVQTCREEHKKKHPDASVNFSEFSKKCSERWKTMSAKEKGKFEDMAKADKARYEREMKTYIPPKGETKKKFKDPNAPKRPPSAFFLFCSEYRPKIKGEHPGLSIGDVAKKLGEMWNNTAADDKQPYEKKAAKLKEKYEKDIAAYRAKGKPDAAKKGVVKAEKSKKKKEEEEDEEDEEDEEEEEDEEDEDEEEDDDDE
Description: We measured association and disassociation rates using the Octet (FIG. 26C).

T1 sequence (P01375 77-233 limits assumed): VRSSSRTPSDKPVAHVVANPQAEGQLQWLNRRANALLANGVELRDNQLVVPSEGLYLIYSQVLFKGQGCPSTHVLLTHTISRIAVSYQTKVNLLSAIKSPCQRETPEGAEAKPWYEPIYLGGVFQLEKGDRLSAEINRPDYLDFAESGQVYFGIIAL

B1: R41A6 Fc fusion protein (A6+Fc) (Fc fusion)
chain: NVSPPRRARVTDATETTITISWEHSEDDCYSYIYYFQVDAVPANGQTPIQRTISGYETYYTITGLQPGTDYKIYLYTLNSAGFCPPYSKPVVIDAST
notes: Expressed in E. coli BL-21(DE3) from pET-20b with pelB signal; it calls A6 alone monomeric; also called pET-20b+TNF A6+Fc #39; 14FN3-Fc fusion; not shown: C-terminal hexahistidine tag of pET-20b
How did the Kd [1] turn out when B1 was run?
The Kd was 24.8 nM and 14.9 nM and 11.7 nM.

What about the koff [1] of the same binder?
Its koff is 0.000226 s⁻¹ and 0.00022 s⁻¹ and 0.000229 s⁻¹.

What about the kon [1] of the same binder?
The kon was 9120 M⁻¹ s⁻¹ and 14900 M⁻¹ s⁻¹ and 19500 M⁻¹ s⁻¹.

B2: TNF-α binder R41A6 (designed binder)
chain: B1 chain
notes: 14FN3 scaffold variant from the tyrosine WTM library; Octet); The NcoI primer adds ATGGAA before the NVSPP start in the pET-20b construct; also called TNF A6; not shown: C-terminal hexahistidine tag from pET-20b (Octet), or c-myc + 6xHis tags from the phagemid (soluble ELISA)
With B2 as the binder, how does the koff [2] read?
The koff was 0.000438 s⁻¹ and 0.000267 s⁻¹.

B3: P2F3 anti-HMGB1 (designed binder)
chain: NVSPPRRARVTDATETTITIRWGVPHSFQVDAVPANGQTPIQRTIKRGVRSYTITGLQPGTDYKIYLYTLNDNARSSPVVIDAST
notes: soluble 6xHis-tagged protein in Octet; not shown: C-terminal tags from the phagemid incl; 6xHis (soluble form)
What does the source list for B3?
Kd [3]: 277 nM; kon [3]: 97900 M⁻¹ s⁻¹
